T1: ligated CheA P1(Q153)/(S154C)P2–5 produced by expressed protein ligation (EPL) (E. coli, UniProt P07363 1-654, S154C)
T1 construct: CheA, E. coli, amplified from genomic DNA of strain BL21; Inteins and CBD of both fragments were removed before ligation; also called ligation product of P1/P2–5; source: fragments expressed in E. coli BL21-CodonPlus (DE3)-RP, purified, ligated in vitro (EPL)
T1 sequence (looked up): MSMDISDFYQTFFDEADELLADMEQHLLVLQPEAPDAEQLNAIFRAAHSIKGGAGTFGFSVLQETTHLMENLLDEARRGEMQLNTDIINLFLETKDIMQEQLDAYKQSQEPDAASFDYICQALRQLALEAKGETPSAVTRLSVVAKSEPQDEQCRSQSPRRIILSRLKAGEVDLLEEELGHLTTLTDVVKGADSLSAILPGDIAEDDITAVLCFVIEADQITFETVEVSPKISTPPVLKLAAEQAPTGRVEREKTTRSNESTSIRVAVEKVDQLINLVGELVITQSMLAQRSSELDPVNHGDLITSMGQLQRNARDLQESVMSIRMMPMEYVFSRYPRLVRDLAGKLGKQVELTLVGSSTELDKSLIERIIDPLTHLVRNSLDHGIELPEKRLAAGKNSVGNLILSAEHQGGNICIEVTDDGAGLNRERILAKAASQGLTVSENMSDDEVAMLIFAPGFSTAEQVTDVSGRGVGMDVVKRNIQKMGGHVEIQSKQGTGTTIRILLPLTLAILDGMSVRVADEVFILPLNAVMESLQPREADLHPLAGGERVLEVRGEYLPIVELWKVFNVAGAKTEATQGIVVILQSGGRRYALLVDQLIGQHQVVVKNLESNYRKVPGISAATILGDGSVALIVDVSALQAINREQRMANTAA

B1: ligated CheA P1(Q153G)/(S154C)P2–5 produced by expressed protein ligation (EPL) (enzyme, E. coli, UniProt P07363 1-654, looked up)
chain: T1 sequence (looked up) with Q153G
notes: CheA, E. coli, amplified from genomic DNA of strain BL21; P1 fragment was made as a C-terminal Mxe GyrA intein-CBD fusion and P2–5 as an N-terminal CBD-Ssp DnaB intein fusion (pTWIN1); both inteins were removed before ligation; NMR samples were [2H,15N]-labeled in P1; UniProt entry is of strain K-12; the DNA was from strain BL21; also called Q153G/S154C dimer; ligated product
B2: ligated CheA P12^(2)/^(5)P3–5 produced by protein trans-splicing (PTS) in vivo (enzyme, E. coli)
chain: T1 sequence (looked up) with C154S, K239G, L240S, A241C, A242F, E243N, Q244G, A245T
notes: CheA P12 domains, E. coli, amplified from genomic DNA of strain BL21, residues 1–238; stands instead of KLAAEQA of the P2-P3 linker; CheA P3–5 domains, E. coli, amplified from genomic DNA of strain BL21, residues 246–654; H6-Smt3 was removed with Ulp1; results and methods give a different order of SEC and tag removal, so its state at the SEC is open; P12 part [2H,15N]-labeled in the NMR sample; …
B3: (S154C)P2–5 domains of CheA (domain or fragment, E. coli, UniProt P07363 154-654, looked up)
chain: CRSQSPRRIILSRLKAGEVDLLEEELGHLTTLTDVVKGADSLSAILPGDIAEDDITAVLCFVIEADQITFETVEVSPKISTPPVLKLAAEQAPTGRVEREKTTRSNESTSIRVAVEKVDQLINLVGELVITQSMLAQRSSELDPVNHGDLITSMGQLQRNARDLQESVMSIRMMPMEYVFSRYPRLVRDLAGKLGKQVELTLVGSSTELDKSLIERIIDPLTHLVRNSLDHGIELPEKRLAAGKNSVGNLILSAEHQGGNICIEVTDDGAGLNRERILAKAASQGLTVSENMSDDEVAMLIFAPGFSTAEQVTDVSGRGVGMDVVKRNIQKMGGHVEIQSKQGTGTTIRILLPLTLAILDGMSVRVADEVFILPLNAVMESLQPREADLHPLAGGERVLEVRGEYLPIVELWKVFNVAGAKTEATQGIVVILQSGGRRYALLVDQLIGQHQVVVKNLESNYRKVPGISAATILGDGSVALIVDVSALQAINREQRMANTAA
notes: CheA P2–5 domains, E. coli, amplified from genomic DNA of strain BL21, residues S154 to A654 with cysteine at the N-terminus; also called unreacted (S154C)P2–5; unreacted P2–5; source: E. coli BL21-CodonPlus (DE3)-RP, purified (chitin beads, intein cleavage); not shown: CBD-Ssp DnaB intein, N-terminal, cleaved

Numbering of substitutions follows the chain as printed. Names and notes keep the numbering of the source.

Data set [1] concerns the molecule itself. As to the kind of experiment: SEC; HiLoad 16/60 Superdex 200 prep grade, TEDG buffer (50 mM Tris pH 7.5, 0.5 mM EDTA, 2 mM DTT, 10% glycerol) with 150 mM NaCl; elution volume compared with immunoglobulin G (158 kDa). For orientation: SEC sorts molecules by how far they enter the pores of the column.
The target in data set [2] is T1, ligated CheA P1(Q153)/(S154C)P2–5 …. As to the kind of experiment: co-purification (SEC, then separation by anion exchange chromatography); EPL reaction mixture of purified fragments; Superdex 200, then ResourceQ in TEDG buffer with a 0–500 mM NaCl gradient; heterodimer separated from the ligated homodimer. To be noted: both partners purified.
Data set [3] concerns the target B1. The description is as above. To be noted: both partners purified.

Results on three molecules are retold here after publication PMC3405243, “Segmental isotopic labeling of a 140 kDa dimeric multi-domain protein CheA from Escherichia coli by expressed protein ligation and protein trans-splicing” (Journal of Biomolecular Nmr, 2012).

For orientation: stoichiometry N means the number of molecules, sites or subunits per partner or assembly.

Take B1: the “stoichiometry N” value in data set [1] came to 2. For B2, the “stoichiometry N” value in data set [1] is 2. On to B3, for which the binding result in data set [2] and in data set [3] was “binds” each time.
